From publication PMC8238635 come the findings set out here.

Series [1] addresses T1, Nsp8 (SARS-CoV-2 (taxid 2697049), UniProt P0DTD1 3943-4140). As to the kind of experiment: SEC-MALS-SAXS; 1:1 complex, high affinity. As to conditions: protein: recombinant; tags: N-terminal His6-TEV, cleaved; label: 32P in EMSA; none in SEC; single strand.
Series [2] deals with T1, Nsp8. The experiment in a line: SEC-MALS-SAXS. The note with it: protein: recombinant; tags: N-terminal His6-TEV, cleaved. (In general: SEC sorts molecules by how far they enter the pores of the column.)
A further series deals with Nsp8;Nsp12 (RdRp) (SARS-CoV-2 (taxid 2697049);SARS-CoV-2 …, UniProt P0DTD1;P0DTD1 3943-4140;4393-5324, |). As to the kind of experiment: SEC-MALS-SAXS; excess RNA; low or nonexistent binding. As to conditions: protein: recombinant;recombinant, tags: N-terminal His6-TEV, cleaved;N-terminal His6-TEV, copies: 1;1.
For series [3], the target named is T1, Nsp8. The experiment in a line: EMSA; split bands. The note with it: protein: recombinant, tags: N-terminal His6-TEV, cleaved, single strand. A general note: A gel shift assay detects complexes by their altered migration in electrophoresis.

B1: long ssRNA (36 bases) (ssRNA)
RNA: UUUUCAUGCUACGCGUAGCAUGCUACGCGUAGCAUG
In the case of B1, the binding result with Nsp8 [1] is “binds”.

B2: dsRNA (long ssRNA paired to short ssRNA) (dsRNA)
RNA 1: B1 RNA
RNA 2: CAUGCUACGCGUAGCAUGCUACGCGUAG
Regarding B2, the results for the binding result in the series with Nsp8 [2] and in the series with Nsp8;Nsp12 (RdRp) were “binds” and “no binding”, respectively.

B3: short ssRNA (28 bases) (ssRNA)
RNA: CAUGCUACGCGUAGCAUGCUACGCGUAG
Regarding B3, the binding result with Nsp8 [3] (label: 32P in EMSA, none in SEC) is reported as “binds”.

B4: long ssRNA without poly-U 5' end (ssRNA)
RNA: CAUGCUACGCGUAGCAUGCUACGCGUAGCAUG
For B4, in the series with Nsp8 [3] (label: 32P), the binding result is on record as “binds”.
